{"source": "paper PMC8264776", "molecular_target": "T1, OsbHLH148 (bHLH148-6xHis) (Oryza sativa) (UniProt Q75KV9)", "T1 sequence": "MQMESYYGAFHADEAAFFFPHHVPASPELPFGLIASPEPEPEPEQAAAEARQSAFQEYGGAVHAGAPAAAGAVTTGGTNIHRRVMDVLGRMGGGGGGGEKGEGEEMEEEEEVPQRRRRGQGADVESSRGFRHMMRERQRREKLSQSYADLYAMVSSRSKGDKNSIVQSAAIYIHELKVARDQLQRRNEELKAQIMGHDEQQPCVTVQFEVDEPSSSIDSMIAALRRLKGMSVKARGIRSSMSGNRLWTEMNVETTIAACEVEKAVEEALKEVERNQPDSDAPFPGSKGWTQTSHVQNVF", "test": "EMSA", "conditions": "10 mM Tris pH 7.5, 50 mM KCl, 1 mM DTT, 2.5% glycerol, 5 mM MgCl (so in the source), 0.05% NP-40, 50 ng/ul poly(dI-dC); 20 min room temperature; 5% native PAGE", "data": [{"sequence": "AAATAAATAAGACAGACGATTAAAATTAGATACGTAAATCATGGCGGCGTTTAAAATGGGATGGATTGAGTAGTACACTGTACCAGCGTACCCTTTTGTACTCATAGGAAGACTTCGACATTTTCAAACACTTGAGGACAACTTTCCAATTCAATAACAATACTACTCCACACGTGGCTGAAATGGCTGAAAAAGTTCCA (double strand) [OsRAP2.6 promoter fragment]", "values": [{"measurement": "binding", "result": "binds"}]}]}
